From patent US10357539B2, “Use of peptides that block metadherin-SND1 interaction as treatment for cancer” (THE TRUSTEES OF PRINCETON UNIVERSITY, priority 2014, dated 2019)
Entries after “also recorded” stand apart in the source; their conditions may differ.

T1: SND1 (Homo sapiens, UniProt Q7KZF4)
T1 construct: Full-length HA-tagged SND1 was co-expressed with full-length Myc-tagged wild-type (WT) or mutant MTDH in HEK293T cells; expressed in transfected cells; host or cells: HEK293T
T1 sequence (Q7KZF4 1-910): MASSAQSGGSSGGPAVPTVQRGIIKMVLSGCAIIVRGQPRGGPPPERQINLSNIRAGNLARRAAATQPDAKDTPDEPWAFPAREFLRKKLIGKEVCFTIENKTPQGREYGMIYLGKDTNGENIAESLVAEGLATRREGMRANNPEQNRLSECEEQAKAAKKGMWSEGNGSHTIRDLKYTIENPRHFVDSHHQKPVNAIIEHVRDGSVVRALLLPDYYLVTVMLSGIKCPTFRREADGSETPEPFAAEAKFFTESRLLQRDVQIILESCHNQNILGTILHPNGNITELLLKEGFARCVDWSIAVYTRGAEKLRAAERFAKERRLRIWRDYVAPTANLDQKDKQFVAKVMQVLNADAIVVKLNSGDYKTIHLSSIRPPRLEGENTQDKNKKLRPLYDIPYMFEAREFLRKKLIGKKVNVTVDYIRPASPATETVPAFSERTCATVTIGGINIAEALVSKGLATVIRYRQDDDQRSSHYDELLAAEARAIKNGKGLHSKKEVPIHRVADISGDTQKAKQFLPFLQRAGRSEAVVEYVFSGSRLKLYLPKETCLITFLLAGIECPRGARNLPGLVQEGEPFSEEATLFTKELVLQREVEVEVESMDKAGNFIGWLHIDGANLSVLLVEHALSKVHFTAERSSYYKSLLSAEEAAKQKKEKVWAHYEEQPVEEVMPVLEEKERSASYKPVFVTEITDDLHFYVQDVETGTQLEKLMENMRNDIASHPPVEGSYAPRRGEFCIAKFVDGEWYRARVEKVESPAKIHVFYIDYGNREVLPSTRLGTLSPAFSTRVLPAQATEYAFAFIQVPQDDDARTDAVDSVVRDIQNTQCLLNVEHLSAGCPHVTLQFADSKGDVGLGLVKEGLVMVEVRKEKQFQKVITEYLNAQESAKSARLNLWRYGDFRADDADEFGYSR

T2: SND1 (Homo sapiens, UniProt Q7KZF4)
T2 construct: 15 μg of His-SND1 (16-339) was added to the resin; made in house; host or cells: E. coli DH5α
T2 sequence (Q7KZF4 16-339): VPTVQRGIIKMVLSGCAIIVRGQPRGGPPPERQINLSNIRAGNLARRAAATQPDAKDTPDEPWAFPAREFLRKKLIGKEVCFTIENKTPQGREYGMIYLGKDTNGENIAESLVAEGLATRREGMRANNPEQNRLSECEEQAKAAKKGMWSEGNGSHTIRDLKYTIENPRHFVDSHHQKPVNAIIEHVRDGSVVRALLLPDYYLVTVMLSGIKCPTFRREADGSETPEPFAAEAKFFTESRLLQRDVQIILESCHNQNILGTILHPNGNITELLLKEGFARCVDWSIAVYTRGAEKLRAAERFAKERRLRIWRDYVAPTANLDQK


Tests used:
SND1 [1] = target: T1, SND1; assay: Co-immunoprecipitation of full-length Myc-MTDH (WT or mutant) and HA-SND1 in HEK293T cells; type: cell-based; conditions: HEK293T cell lysates, immunoprecipitation and immunoblot
Text: (§1) FIGS. 7A-E represents determination of key regions and residues mediating the MTDH-SND1 interaction. (FIG. 7A) Schematics of MTDH fragments and mutants with indicated SND1-binding capability. + indicates binding and − indicates no binding based on results shown below. Two putative nuclear localization signals are residues 432-451 for NLS2 and residues 561-580 for NLS3. In the enlarged view of the minimal binding region 386-407, 9 residues were targeted for mutagenesis in the current study. […] (FIG. 7B) Pulldown of His6-SND1AC by GST-tagged MTDH fragments with indicated boundaries. The bound proteins were examined by SDS-PAGE and visualized by Coomassie blue staining. (FIG. 7C) Pulldown of His6-SND1ΔC by GST-tagged WT or triple mutant MTDH fragments (364-582). For (FIG. 7B) and (FIG. 7C), 1/10 of the His6-SND1ΔC input was shown, and GST alone was used as a negative control. Representative results of 3 independent experiments are shown. (FIG. 7D, FIG. 7E) Lysates from HEK293T cells expressing the indicated ectopic human SND1, AGO2 or MTDH were immunoprecipitated with anti-Myc and immunoblotted with the indicated antibodies.
(§2) (FIG. 22A) In vitro pull-down of SND1 (16-339) by GST-tagged MTDH (364-582) harboring WT or mutant sequence. The proteins bound to GS4B were examined on SDS-PAGE and visualized by Coomassie blue staining. (FIG. 22B) In vitro pull-down of WT and mutant SND1 (16-339) by GST-tagged MTDH (364-582). The bound proteins were examined as in (FIG. 22A). For both (FIG. 22A) and (FIG. 22B), experiments were repeated three times; representative results are shown. The normalized percentage of binding was averaged from three experiments; mean±SEM was shown below the data. (FIG. 22C) HEK293T cells were transfected with human HA-SND1, WT Myc-MTDH or Myc-MTDH with indicated single point mutation. Lysates were immunoprecipitated with anti-Myc antibody and immunoblotted with the indicated antibodies. (FIG. 22D) HEK293T cells were transfected with human Myc-MTDH, WT HA-SND1 or mutant HA-SND1 with indicated single point mutations or deletions. Lysates were immunoprecipitated with anti-Myc and immunoblotted with the indicated antibodies.
Immunoprecipitation and western blot For immunoprecipitation (IP) experiments, cultured cells were washed in cold PBS and lysed in lysis buffer (20 mM Tris pH 7.4, 0.15 M NaCl, 1 mM EDTA, 1 mM EGTA, 1% Tx-100, 0.0025 M Na2P2O7, 1 mM α-glycerolphosphate, 1 mM Na3VO4, and 1 mM NaF) with an EDTA-free protease inhibitor mixture (Roche Applied Science) and PMSF. Cell lysates were then incubated on ice for 10 min, centrifuged, and precleared by incubating with protein A/G beads (Santa Cruz Biotechnology) for 1 h at 4° C. For IP bead preparation, 30 μl of protein A/G beads were incubated with 5 μg of antibodies for 2 h at 4° C. IPs were carried out for overnight at 4° C., and beads were centrifuged, washed and subsequently boiled for 5 min in SDS protein loading buffer to elute bound protein. IP lysates were subjected to western blotting with indicated antibodies.
Immunoprecipitation and western blot: For in vivo immunoprecipitation (IP) experiments, cultured cells were washed in cold PBS and lysed in lysis buffer (20 mM Tris pH 7.4, 0.15 M NaCl, 1 mM EDTA, 1 mM EGTA, 1% Tx-100, 0.0025 M Na2P2O7, 1 mM β-glycerolphosphate, 1 mM Na3VO4, and 1 mM NaF) with an EDTA-free protease inhibitor mixture (Roche Applied Science) and PMSF. Cell lysates were then incubated on ice for 10 min, centrifuged, and precleared by incubating with protein A/G beads (Santa Cruz Biotechnology) for 1 h at 4° C. For IP bead preparation, 30 μl of protein A/G beads were incubated with 5 μg of antibodies for 2 h at 4° C. IPs were carried out for overnight at 4° C., and beads were centrifuged, washed and subsequently boiled for 5 min in SDS protein loading buffer to elute bound protein. IP lysates were subjected to western blotting with indicated antibodies.

SND1 [2] = target: T2, SND1; assay: GST-mediated pull-down of SND1 by GST-tagged MTDH fragments and mutants; type: binding; conditions: SND1 (16-339); GST-tagged MTDH (364-582)
Text: as §1, §2
GST-Mediated Pull-Down Assay: ˜20 μg of GST-MTDH (different truncation forms and site mutants) was bound to 10 μl of glutathione resin via GST tag. The resin was washed with 200 μl assay buffer (25 mM Tris, PH8.0, 150 mM NaCl, 3 mM DTT) three times to remove the excess unbound protein. 15 μg of His-SND1 (16-339) was added to the resin in a 100 μl volume suspended in the assay buffer with 2 mg/ml of BSA. The mixture was washed with 200 μl assay buffer twice before examined by SDS-PAGE, and visualized by Coomassie blue staining. The experiments were repeated 3 times and the ratio of SND1 associated with GST-MTDH was analyzed by ImageJ.

Molecule | interaction of full-length MTDH (WT or mutant) with HA-SND1 (SND1 [1]) | SND1-binding of MTDH (364-582) point mutants, in vitro (SND1 [2])
W394D: MTDH single point mutant W394D (protein, UniProt Q86UE4 1-582, looked up, variant W394D) Protein LYRIC: MAARSWQDELAQQAEEGSARLREMLSVGLGFLRTELGLDLGLEPKRYPGWVILVGTGALGLLLLFLLGYGWAAACAGARKKRRSPPRKREEAAAVPAAAPDDLALLKNLRSEEQKKKNRKKLSEKPKPNGRTVEVAEGEAVRTPQSVTAKQPPEIDKKNEKSKKNKKKSKSDAKAVQNSSRHDGKEVDEGAWETKISHREKRQQRKRDKVLTDSGSLDSTIPGIENTITVTTEQLTTASFPVGSKKNKGDSHLNVQVSNFKSGKGDSTLQVSSGLNENLTVNGGGWNEKSVKLSSQISAGEEKWNSVSPASAGKRKTEPSAWSQDTGDANTNGKDWGRSWSDRSIFSGIGSTAEPVSQSTTSDYQWDVSRNQPYIDDEWSGLNGLSSADPNSDDNAPAEEWGNWVDEERASLLKSQEPIPDDQKVSDDDKEKGEGALPTGKSKKKKKKKKKQGEDNSTAQDTEELEKEIREDLPVNTSKTRPKQEKAFSLKTISTSDPAEVLVKNSQPIKTLPPATSTEPSVILSKSDSDKSSSQVPPILQETDKSKSNTKQNSVPPSQTKSETSWESPKQIKKKKKARRET | completely and not | abolished or significantly reduced the interaction
W401D: MTDH single point mutant W401D (protein, UniProt Q86UE4 1-582, looked up, variant W401D) Protein LYRIC: MAARSWQDELAQQAEEGSARLREMLSVGLGFLRTELGLDLGLEPKRYPGWVILVGTGALGLLLLFLLGYGWAAACAGARKKRRSPPRKREEAAAVPAAAPDDLALLKNLRSEEQKKKNRKKLSEKPKPNGRTVEVAEGEAVRTPQSVTAKQPPEIDKKNEKSKKNKKKSKSDAKAVQNSSRHDGKEVDEGAWETKISHREKRQQRKRDKVLTDSGSLDSTIPGIENTITVTTEQLTTASFPVGSKKNKGDSHLNVQVSNFKSGKGDSTLQVSSGLNENLTVNGGGWNEKSVKLSSQISAGEEKWNSVSPASAGKRKTEPSAWSQDTGDANTNGKDWGRSWSDRSIFSGIGSTAEPVSQSTTSDYQWDVSRNQPYIDDEWSGLNGLSSADPNSDWNAPAEEDGNWVDEERASLLKSQEPIPDDQKVSDDDKEKGEGALPTGKSKKKKKKKKKQGEDNSTAQDTEELEKEIREDLPVNTSKTRPKQEKAFSLKTISTSDPAEVLVKNSQPIKTLPPATSTEPSVILSKSDSDKSSSQVPPILQETDKSKSNTKQNSVPPSQTKSETSWESPKQIKKKKKARRET | partially abolished the binding; also recorded: significantly reduced the binding; also recorded: strongly reduced the binding | abolished or significantly reduced the interaction
W394A: MTDH mutant W394A (protein, UniProt Q86UE4 1-582, looked up, variant W394A) Protein LYRIC: MAARSWQDELAQQAEEGSARLREMLSVGLGFLRTELGLDLGLEPKRYPGWVILVGTGALGLLLLFLLGYGWAAACAGARKKRRSPPRKREEAAAVPAAAPDDLALLKNLRSEEQKKKNRKKLSEKPKPNGRTVEVAEGEAVRTPQSVTAKQPPEIDKKNEKSKKNKKKSKSDAKAVQNSSRHDGKEVDEGAWETKISHREKRQQRKRDKVLTDSGSLDSTIPGIENTITVTTEQLTTASFPVGSKKNKGDSHLNVQVSNFKSGKGDSTLQVSSGLNENLTVNGGGWNEKSVKLSSQISAGEEKWNSVSPASAGKRKTEPSAWSQDTGDANTNGKDWGRSWSDRSIFSGIGSTAEPVSQSTTSDYQWDVSRNQPYIDDEWSGLNGLSSADPNSDANAPAEEWGNWVDEERASLLKSQEPIPDDQKVSDDDKEKGEGALPTGKSKKKKKKKKKQGEDNSTAQDTEELEKEIREDLPVNTSKTRPKQEKAFSLKTISTSDPAEVLVKNSQPIKTLPPATSTEPSVILSKSDSDKSSSQVPPILQETDKSKSNTKQNSVPPSQTKSETSWESPKQIKKKKKARRET | not | abolished or significantly reduced the interaction
W401A: MTDH mutant W401A (protein, UniProt Q86UE4 1-582, looked up, variant W401A) Protein LYRIC: MAARSWQDELAQQAEEGSARLREMLSVGLGFLRTELGLDLGLEPKRYPGWVILVGTGALGLLLLFLLGYGWAAACAGARKKRRSPPRKREEAAAVPAAAPDDLALLKNLRSEEQKKKNRKKLSEKPKPNGRTVEVAEGEAVRTPQSVTAKQPPEIDKKNEKSKKNKKKSKSDAKAVQNSSRHDGKEVDEGAWETKISHREKRQQRKRDKVLTDSGSLDSTIPGIENTITVTTEQLTTASFPVGSKKNKGDSHLNVQVSNFKSGKGDSTLQVSSGLNENLTVNGGGWNEKSVKLSSQISAGEEKWNSVSPASAGKRKTEPSAWSQDTGDANTNGKDWGRSWSDRSIFSGIGSTAEPVSQSTTSDYQWDVSRNQPYIDDEWSGLNGLSSADPNSDWNAPAEEAGNWVDEERASLLKSQEPIPDDQKVSDDDKEKGEGALPTGKSKKKKKKKKKQGEDNSTAQDTEELEKEIREDLPVNTSKTRPKQEKAFSLKTISTSDPAEVLVKNSQPIKTLPPATSTEPSVILSKSDSDKSSSQVPPILQETDKSKSNTKQNSVPPSQTKSETSWESPKQIKKKKKARRET | not | abolished or significantly reduced the interaction
